Legend:
Settings in all cases: both partners purified
[1] = target: T1, LBT-TPR2A (TPR2A domain of yeast Sti1 with an N-terminal lanthanide binding tag) (yeast, UniProt P15705 252-379); assay: LRET (luminescence resonance energy transfer); titration: 20 µM LBT-TPR2A-Tb3+ complex with increasing EGFP-C90 (0-15 µM); normalized LRET Em510 nm/Em490 nm; Scatchard plot; three independent experiments
T1 construct: TPR2A domain of Sti1, yeast, aa 252-379; Loaded with equimolar Tb3+ in the assay; also called LBT-TPR2A (Sti1); LBT-TRP2A; source: E. coli Rosetta (DE3) pLysS, purified (Ni-NTA)
T1 sequence (looked up): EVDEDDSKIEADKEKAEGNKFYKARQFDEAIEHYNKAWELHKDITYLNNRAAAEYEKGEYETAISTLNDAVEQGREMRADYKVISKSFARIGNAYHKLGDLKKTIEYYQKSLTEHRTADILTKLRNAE

[2] = target: T2, LBT-TPR2A K229A (TPR2A domain of human HOP, point mutant K229A) (human, UniProt P31948 225-337, K229A); assay: LRET (luminescence resonance energy transfer); equimolar mixture in solution of the LBT-tagged protein loaded with Tb3+ and the EGFP or TagRFP fusion protein (5 µM, or 25 µM for TagRFP-C70); 96-well black plates; excitation 280 nm, 100 µs delay, emission spectrum 450-600 nm
T2 construct: TPR2A domain of HOP (STIP1), human, aa 225-337, with K229A; Loaded with equimolar Tb3+ in the assay; also called TPR2A mutant K229A; source: E. coli Rosetta (DE3) pLysS, purified (Ni-NTA)

[3] = target: T3, LBT-TPR2A (TPR2A domain of human HOP, wild type, with an N-terminal lanthanide binding tag) (human, UniProt P31948 225-337); assay: as above
T3 construct: TPR2A domain of HOP (STIP1), human, aa 225-337; Cloned into the XhoI site of pST96/LBT-MCS; Loaded with equimolar Tb3+ in the assay; also called LBT-TPR2A WT; TPR2A WT; source: E. coli Rosetta (DE3) pLysS, purified (Ni-NTA)
T3 sequence (P31948 225-337): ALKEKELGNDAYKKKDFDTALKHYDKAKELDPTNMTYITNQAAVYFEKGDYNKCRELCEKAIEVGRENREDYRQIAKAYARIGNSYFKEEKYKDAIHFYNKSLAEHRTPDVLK

T2 sequence (P31948 225-337 K229A): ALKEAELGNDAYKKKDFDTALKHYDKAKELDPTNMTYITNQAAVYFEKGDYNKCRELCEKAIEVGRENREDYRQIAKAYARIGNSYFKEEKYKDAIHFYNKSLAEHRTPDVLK

Kd [1]: 4.2 µM
binding result [2]: binds
binding result [3]: binds
B1: EGFP-C90 (last 90 amino acids of human HSP90α fused to the C-terminus of EGFP) (domain or fragment)
chain: not shown
notes: HSP90α, human, the C-terminal 90 amino acids, ending with MEEVD; EGFP in the XhoI site and C90 in the BamHI site of pET15b; source: E. coli Rosetta (DE3) pLysS, purified (Ni-NTA); not shown: EGFP, N-terminal, kept

Reference: paper PMC5809404, “Luminescence resonance energy transfer between genetically encoded donor and acceptor for protein-protein interaction studies in the molecular chaperone HSP70/HSP90 complexes” (Scientific Reports, 2018)
